In patent publication US20220281990A1 (MERRIMACK PHARMACEUTICALS, published 2022):

T1: Human TNFR2 expressed on cells (CHO-hTNFR2 cells) (human, UniProt P20333 23-461)
T1 construct: also called CHO cells overexpressing human TNFR2; human TNFR2 reporter cells (HEK293)
T1 sequence: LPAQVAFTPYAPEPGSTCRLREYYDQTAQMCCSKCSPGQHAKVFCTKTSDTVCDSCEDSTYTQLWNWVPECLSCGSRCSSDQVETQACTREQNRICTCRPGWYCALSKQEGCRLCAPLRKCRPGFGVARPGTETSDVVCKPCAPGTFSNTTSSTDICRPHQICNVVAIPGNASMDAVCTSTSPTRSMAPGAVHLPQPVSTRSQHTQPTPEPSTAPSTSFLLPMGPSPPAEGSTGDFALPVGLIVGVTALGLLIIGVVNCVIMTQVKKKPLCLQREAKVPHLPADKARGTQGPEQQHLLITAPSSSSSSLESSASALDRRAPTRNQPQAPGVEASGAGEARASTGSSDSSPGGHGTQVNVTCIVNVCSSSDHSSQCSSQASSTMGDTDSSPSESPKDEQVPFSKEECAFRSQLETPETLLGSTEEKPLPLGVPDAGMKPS

T2: recombinant human TNFR2-hFc protein (human, UniProt P20333 23-257)
T2 construct: also called hTNFR2-Fc; human TNFR2-Fc; not shown: human Fc
T2 sequence: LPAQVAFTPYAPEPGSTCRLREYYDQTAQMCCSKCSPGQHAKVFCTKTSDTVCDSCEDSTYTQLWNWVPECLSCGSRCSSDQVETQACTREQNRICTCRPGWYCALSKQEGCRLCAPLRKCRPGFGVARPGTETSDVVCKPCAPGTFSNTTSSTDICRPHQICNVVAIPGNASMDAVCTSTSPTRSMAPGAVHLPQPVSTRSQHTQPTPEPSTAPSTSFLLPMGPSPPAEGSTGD


Key:
[1] = biological target: T1, Human TNFR2 expressed on cells …; assay: flow cytometry; soluble scFv inhibiting TNF (1 nM) binding to CHO-hTNFR2 cells (FIGS. 5A-5B)
[2] = biological target: T2, recombinant human TNFR2-hFc protein; assay: flow cytometry; hTNFR2-Fc binding to scFv displayed on yeast; one site binding fit (FIG. 4)
[3] = biological target: T1, Human TNFR2 expressed on cells …; assay: flow cytometry, titration of soluble scFv (up to 300 nM) on CHO-hTNFR2 cells; one site binding non-linear fit
[4] = biological target: T2, recombinant human TNFR2-hFc protein; assay: flow cytometry; TNFR2-Fc binding to scFv displayed on yeast (FIGS. 6A-6C)
[5] = biological target: T2, recombinant human TNFR2-hFc protein; assay: flow cytometry; hTNFR2-Fc binding to scFv displayed on yeast; one site binding fit (FIG. 6A)
[6] = biological target: T1, Human TNFR2 expressed on cells …; assay: flow cytometry; soluble scFv inhibiting TNF (1 nM) binding to CHO-hTNFR2 cells (FIG. 3)
[7] = biological target: T2, recombinant human TNFR2-hFc protein; assay: flow cytometry; hTNFR2-Fc binding to scFv displayed on yeast; one site binding fit (FIG. 6B)

Kd [3] [nM]	fold higher affinity (vs parental scFv) [4] [fold]	IC50 [6] [nM]	Kd [7] [nM]	Binder	further results
8.17				UC1 (S4-2 1B5) scFv (scFv) scFv: QVQLLESGGGLVQPGGSLRLSCAASGFSFTSYAMTWVRQAPGKGLEWVSGISGGGAATFYADSVKGRFTISRDNSKNTLYLQMNSLRAEDTAVYYCARQSQYVGGFDYWGQGTLVTVSSASSGGSTSGSGKPGSGEGSSGSARQSVLTQPPSVSGAPGQRVTISCTGSSSNIGAGYGVHWYQQLPGTAPKLLIYGNTNRPSGVPDRFSGFKSGTSASLAITGLQAEDEADYYCQSYDSSLSGWVFGGGTKLTVLG	IC50 [1]: 4.44 nM; Kd [2]: 18.1 nM
	10			UC1.2 (S4-2 1B5-1A5) scFv (scFv) scFv: QVQLLESGGGLVQPGGSLRLSCAASGFSFTSYAMTWVRQAPGKGLEWVSGISGGGAATFYADSVKGRFTISRDNSKNTLYLQMNSLRAEDTAVYYCARQSQYVGGFDYWGQGTLVTVSSASSGGSTSGSGKPDSGEGSSGSARQSVLTQPPSVSGAPGQRVTISCTGSSSNFGAGYGVHWYQQLPGTAPKLLIHGNTNRPSGVPDRFSGFKSGTSASLAITGLQAEDEADYYCQSYDSSLSGWVFGGGTKLTVLG	Kd [5]: 0.57 nM
	10			UC1.3 (S4-2 1B5-1B3) scFv (scFv) scFv: QVQLLESGGGLVQPGGSLRLSCAASGFSFTSYAMTWVRQAPGKGLEWVSGISGDGAATFYADSVKGRFTISRDNSKNTLYLQMNSLRAEDTAVYYCARQSQYVGGFDYWGQGTLVTVSSASSGGSTSGSGKPDSGEGSSGSARQSVLTQPPSVSGAPGQRVTISCTGSSSNFGAGYGVHWYQQLPGTAPKLLIHGNTNRPSGVPDRFSGFKSGTSASLAITGLQAEDEADYYCQSYDSSLSGWVFGGGTKLTVLG	Kd [5]: 0.64 nM
48.9		25.6		UC7 (9-1B5) scFv (scFv, Soluble scFv) scFv: QVQLVQSGAEVKKPGSSVKVSCKASGDTFSSYGVSWVRQAPGQGLEWMGRIVPVFGIANYAQKFQGRVTITADESTSTAYMELSSLRSEDTAVYYCARQSPYVTYSSYYFDYWGQGTLVTVSSASSGGSTSGSGKPGSGEGSSGSAREIVLTQSPGTLSLSPGERATLSCRASQSVSNNFLAWYQQKPGQAPRLLIYDASTRATGIPDRFSGSGSGTDFTLTISRLEPEDFAVYYCQQYGSWPITFGQGTKVEIKR	
14.4				UC2 (S4-2 1D10) scFv (scFv) scFv: QVQLLESGGGLVQPGGSLRLSCAASGFTFSTYAMSWVRQAPGKGLEWVSIISDGGDATFYADSVKGRFTISRDNSKNTLYLQMNSLRAEDTAVYYCARDGTSAAAFDSWGQGTLVTVSSASSGGSTSGSGKPGSGEGSSGSARDIQMTQSPSSLSASVGDRVTITCQASQDITNFLNWYQQKPGKAPKLLIYDASTLQTGVPSRFSGSGSGTDFTFTISSLQPEDIATYYCQQSDSYPITFGQGTKVEIKR	IC50 [1]: 39.6 nM; Kd [2]: 42.8 nM
	10		1.52	UC2.3.11 (S4-2 1D10-1G9-1G3) scFv (scFv) scFv: QVQLLESGGGLVQPGGSLRLSCAVSGFTFSTYAMSWIRQAPGKGLEWVSIISDGGDATVYADSVKGRFTISRDNSKNTLYLQMNSLRAEDTAVYYWARDGTSAAAFDSWGQGTLVTVSSANSGGSTSGSGKPGSGEGSSGSARDIQMTQSPSSLSASVGDRVTITCQASQDITNFLNWYQQKPGKAPKLLIYDASTLQTGVPSRFSGSGSGTDFTFTISSLQPEDIATYYCQQSDSYPITFGQGTKVEIKR	
	10		0.63	UC2.3.10 (S4-2 1D10-1G9-1G2) scFv (scFv) scFv: QVQLLESGGGLVQPGGSLRLSYAASGFTFSTYAMSWIRQAPGKGLEWVSIISDGGDATVYADSVKGRFTISRDNSKNTLYLQMNSLRAEDTAVYYCARDRTSAAAFDSWGQGTLVTVSSASSGGSTSGSGKPGSGEGSSGSARDIQMTQSPSSLSASVGDRVTITCQASQDITNFLNWYQQKPGKAPKLLIYDASTLQTGVPSRFSGSGSGTDFTFTISSLQPEDIATYYCQQSDSYPITFGQGTKVEIKR	
	10		1.98	UC2.3.12 (S4-2 1D10-1G9-1H1) scFv (scFv) scFv: QVQLLESGGGLVQPGDSLRLSCAASGFTFSTYAMSWIRQAPGKGLEWVSIISDGGDATVYADSVKGRFTISRDNNRNTLYLQMNSLRAEDTAVYYCARDGTSAAAFDSWGQGTLVTVSSASSGGSTSGSGKPGSGEGSSGSARDIQMTQSPSSLSASVGDRVTITCQASQDITNFLNWYQQKPGKAPKLLIYDASTLQTGVPSRFSGSGSGTNFTFTISSLQPEDIATYYCQQSDSYPITFGQGTKVEIKR	
	10		1.79	UC2.3.9 (S4-2 1D10-1G9-1F12) scFv (scFv) scFv: QVQLLESGGGLVQPGGSLRLSCAASGFTFSTYAMSWIRQAPGKGLEWVSIISDGGDATVYADSVKGRFTISRDNNRNTLYLQMNSLRAEDTAVYYCARDGTSAAAFDSWGQGTLVTVSSASSGGSTSGSGKPGSGEGSSGSARDIQMTQSPSSLSASVGDRVTITCHASQDITNFLNWYQQKPGKAPKLLIYDASTLQTGVPSRFSGSGSGTDFTFTISSLQPEDIATYYCQQSDSYPITFGQGTKVEIKR	
13.4		21.5		UC 8 (9-2A4) scFv (scFv, Soluble scFv) scFv: QVQLVQSGAEVKKPGSSVKVSCKASGDTFSNYGFSWVRQAPGQGLEWMGGIVPVFGIATYAQKFQGRVTITADESTSTAYMELSSLRSEDTAVYYCARDYSYYPDDPRYFEYWGQGTLVTVSSASSGGSTSGSGKPGSGEGSSGSAREIVLTQSPGTLSLSPGERATLSCRASQSVSSTFLAWYQQKPGQAPRLLIYAASSRATGIPDRFSGSGSGTDFTLTISRLEPEDFAVYYCQQYGSWPLTFGQGTKVEIKR	
14.5		746		UC5 (8-2A10) scFv (scFv, Soluble scFv) scFv: QVQLLESGGGLVQPGGSLRLSCAASGFTFNTYAMTWVRQAPGKGLEWVSAISDSGGDTFYADSVKGRFTISRDNSKNTLYLQMNSLRAEDTAVYYCARDGTYAARFDYWGQGTLVTVSSASSGGSTSGSGKPGSGEGSSGSARDIQMTQSPSSLSASVGDRVTITCQASQDISNYLNWYQQKPGKAPKLLIYDASTLETGVPSRFSGSGSGTDFTFTISSLQPEDIATYYCQQSDSFPITFGQGTKVEIKR	
42		69.7		UC6 (9-1A6) scFv (scFv, Soluble scFv) scFv: QVQLVQSGAEVKKPGSSVKVSCKASGDSFNNFGISWVRQAPGQGLEWMGGIVPVLGIATYAQKFQGRVTITADESTSTAYMELSSLRSEDTAVYYCARGSAWYDGSFQYWGQGTLVTVSSASSGGSTSGSGKPGSGEGSSGSAREIVLTQSPGTLSLSPGERATLSCRASQSVSSTFLAWYQQKPGQAPRLLIYDASTRATGIPDRFSGSDSGTDFTLTISRLEPEDFAVYYCQQYDSWPFTFGQGTKVEIKR	
19.3		110		UC3 (S4-2 1E5) scFv (scFv, Soluble scFv) scFv: QVQLLESGGGLVQPGGSLRLSCAASGFSFSSYAMSWVRQAPGKGLEWVSGISAGGGETFYADSVKGRFTISRDNSKNTLYLQMNSLRAEDTAVYYCARVHPISYGFDIWGQGTLVTVSSASSGGSTSGSGKPGSGEGSSGSARDIQMTQSPSSLSASVGDRVTITCQASQDIKKYLNWYQQKPGKAPKLLIYDASTLQTGVPSRFSGSGSGTDFTFTISSLQPEDIATYYCQQSDNTPVTFGQGTKVEIKR	
